The stoichiometry N is a count of units in the complex or per binding partner.

Data set [1] deals with the molecule itself. As to the kind of experiment: crystal structure; sitting-drop vapour diffusion at 20 °C; data at 100 K.
Data set [2] deals with T1, Drosophila melanogaster full-length secreted semaphorin-2a (Sema2a_(full)) (Drosophila melanogaster, UniProt Q24323 26-724).
T1 construct: Semaphorin-2a, Drosophila melanogaster, residues 26D-724V; Disulfide-linked dimer in solution; source: HEK293T (37 °C), transient transfection, purified (HisTrap, SEC)
T1 sequence (looked up): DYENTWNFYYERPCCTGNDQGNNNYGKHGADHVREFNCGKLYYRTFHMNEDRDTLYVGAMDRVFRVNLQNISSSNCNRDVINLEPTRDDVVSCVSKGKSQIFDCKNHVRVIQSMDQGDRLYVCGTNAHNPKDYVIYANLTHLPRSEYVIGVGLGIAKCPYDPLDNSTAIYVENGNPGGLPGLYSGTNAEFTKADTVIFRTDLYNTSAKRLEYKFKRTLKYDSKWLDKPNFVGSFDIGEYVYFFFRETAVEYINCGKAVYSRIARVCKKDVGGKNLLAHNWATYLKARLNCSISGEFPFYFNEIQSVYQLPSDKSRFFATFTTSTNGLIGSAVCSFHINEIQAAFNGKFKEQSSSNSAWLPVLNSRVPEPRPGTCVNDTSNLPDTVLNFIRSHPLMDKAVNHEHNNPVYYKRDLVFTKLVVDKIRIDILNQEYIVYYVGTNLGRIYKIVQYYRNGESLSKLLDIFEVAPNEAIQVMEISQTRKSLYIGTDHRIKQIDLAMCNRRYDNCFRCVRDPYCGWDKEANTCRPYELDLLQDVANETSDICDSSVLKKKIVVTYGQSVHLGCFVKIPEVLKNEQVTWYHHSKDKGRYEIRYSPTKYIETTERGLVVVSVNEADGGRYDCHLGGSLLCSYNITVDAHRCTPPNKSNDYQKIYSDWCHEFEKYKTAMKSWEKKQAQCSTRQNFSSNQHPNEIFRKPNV
As to the kind of experiment: MST; plexin-mVenus kept constant, unlabelled semaphorin titrated (1:1 dilution series); 25 °C; 15 mM HEPES pH 7.4, 150 mM NaCl, 2 mM CaCl2, 0.005% Tween-20; 1 h incubation at room temperature; apparent Kd. As to conditions: both partners purified.

Data set [3] has as its target T2, mouse Sema3A (residues 26–730, furin sites mutated) with C-terminal 3C-Avi-His6 tag (mouse, UniProt O08665 26-730, R551A (printed: R551, 555A) | R555A (printed: R551, 555A)).
T2 construct: Semaphorin-3A, mouse, residues 26-730, furin cleavage sites mutated (R551, 555A); also called Sema3A-His6; source: HEK293T, transient co-transfection, secreted into conditioned medium; not shown: His6, C-terminal, kept
T2 sequence (looked up): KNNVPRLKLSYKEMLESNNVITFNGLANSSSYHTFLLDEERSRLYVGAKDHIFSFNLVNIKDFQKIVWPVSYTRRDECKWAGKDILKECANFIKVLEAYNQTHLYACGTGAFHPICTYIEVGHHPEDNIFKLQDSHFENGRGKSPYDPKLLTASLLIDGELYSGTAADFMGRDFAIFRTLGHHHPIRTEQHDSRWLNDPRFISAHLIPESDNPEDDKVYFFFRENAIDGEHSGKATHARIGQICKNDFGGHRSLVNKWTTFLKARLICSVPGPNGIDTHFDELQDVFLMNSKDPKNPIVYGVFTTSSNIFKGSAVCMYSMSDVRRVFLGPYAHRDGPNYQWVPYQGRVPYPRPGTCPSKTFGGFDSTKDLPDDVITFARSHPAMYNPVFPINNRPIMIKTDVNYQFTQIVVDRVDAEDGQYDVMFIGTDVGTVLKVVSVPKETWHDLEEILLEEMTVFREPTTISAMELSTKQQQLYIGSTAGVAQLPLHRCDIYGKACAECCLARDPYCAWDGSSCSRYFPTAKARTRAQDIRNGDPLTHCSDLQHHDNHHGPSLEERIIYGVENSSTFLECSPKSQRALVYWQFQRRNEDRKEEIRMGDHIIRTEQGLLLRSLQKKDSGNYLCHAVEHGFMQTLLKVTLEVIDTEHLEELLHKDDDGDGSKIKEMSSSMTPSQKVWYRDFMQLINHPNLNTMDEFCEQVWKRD
Put plainly: pull-down; HEK293T co-transfected with a His6-tagged and a TwinStrep-tagged semaphorin; conditioned medium 5 days post transfection; two-step affinity chromatography (HisTrap, then StrepTactin); western blot and SDS-PAGE of flow-through and eluate. To be noted: partners not purified.

B1: Drosophila melanogaster Sema2a1–3 (sema, PSI and Ig-like domains) (domain or fragment, UniProt Q24323 27-671, looked up)
chain: YENTWNFYYERPCCTGNDQGNNNYGKHGADHVREFNCGKLYYRTFHMNEDRDTLYVGAMDRVFRVNLQNISSSNCNRDVINLEPTRDDVVSCVSKGKSQIFDCKNHVRVIQSMDQGDRLYVCGTNAHNPKDYVIYANLTHLPRSEYVIGVGLGIAKCPYDPLDNSTAIYVENGNPGGLPGLYSGTNAEFTKADTVIFRTDLYNTSAKRLEYKFKRTLKYDSKWLDKPNFVGSFDIGEYVYFFFRETAVEYINCGKAVYSRIARVCKKDVGGKNLLAHNWATYLKARLNCSISGEFPFYFNEIQSVYQLPSDKSRFFATFTTSTNGLIGSAVCSFHINEIQAAFNGKFKEQSSSNSAWLPVLNSRVPEPRPGTCVNDTSNLPDTVLNFIRSHPLMDKAVNHEHNNPVYYKRDLVFTKLVVDKIRIDILNQEYIVYYVGTNLGRIYKIVQYYRNGESLSKLLDIFEVAPNEAIQVMEISQTRKSLYIGTDHRIKQIDLAMCNRRYDNCFRCVRDPYCGWDKEANTCRPYELDLLQDVANETSDICDSSVLKKKIVVTYGQSVHLGCFVKIPEVLKNEQVTWYHHSKDKGRYEIRYSPTKYIETTERGLVVVSVNEADGGRYDCHLGGSLLCSYNITVDAHRCTPPNK
notes: Semaphorin-2a, Drosophila melanogaster, sema-PSI-Ig, residues 27Y-671K; Disulfide-linked dimer in the crystal; source: HEK293S-GnTI- or HEK293T with kifunensine, transient transfection, purified (HisTrap, SEC)
Regarding B1, the binding result in data set [1] was “binds”.

B2: Drosophila melanogaster PlexB1–4-mVenus (receptor, UniProt Q9V4A7 35-730, looked up)
chain: EELPAQALSPLNDIVAQFNLPSIPVQSTASSYGNRSIGNNIESVRDSQSKNYFTHMSFDFMHNVLFAGATNKILKLNENLRVLAEAVTGPLHDSPQCHAGGCPEDIETSLVNNFNKILVVSYAHDGILIACGSIRQGACEIYSLPRFPATPQFFAVPLAANDENASTYAFVGPARYAWKEEDILYVGTTFTNVGDYRHDVPAISSRRLDDLNYAEFSIQQSIINIDVKYRDHFLVDYIYGFNSSEYAYFIIVQKKSHLADEAGYVTRLARICITDPNYDSYTEITVQCTATENNVDYNIVRDAKVTPASHKLAQKMGIKKDDHVLVTVFSPSREISNQPESKSAMCIYSIKDIEDMFIENIHLCFNGTTKDRNLGYISGTINDGRCPIVGSLGNIYNFCSVGLKISGVSPITAHALFHFDNVSVTSVTATSTTDQQHSLAFLGTNMGVIKKVLLSGQSPGEYEEIVVDAGNRILPNTMMSPKKDFLYVLSQRKITKLRIEHCSVYTNCSACLESRDPFCGWCSLEKRCTVRSTCQRDTSASRWLSLGSGQQCIEFESIIPEKIPISELSHLHLIIRTLPEPFNAKYRCVFGNSTPIDAEILENGLGCATPPLDERPLIPTNTDHILVPLSVRSSETNKDFVSRNFAFFDCSHHGNCQECLQSSWGCNWCIFDNKCVHKSLQCRNIENAVSTVGHCP
notes: Plexin B, Drosophila melanogaster, domains 1-4 of the ectodomain, residues 35E-730P; source: High Five cells (Trichoplusia ni), baculovirus (pBacPAK9, GP64 signal peptide), purified (HisTrap, SEC); not shown: mVenus, C-terminal, kept
On to B2, for which the Kd in data set [2] came out at 25 nM.

B3: mouse Sema3C (residues 22–711, furin sites mutated) with C-terminal TwinStrep tag (ligand, UniProt Q62181 22-711, looked up)
chain: SSQPQARVYLTFDELRETKTSEYFSLSHQQLDYRILLMDEDQDRIYVGSKDHILSLNINNISQEPLSVFWPASTIKVEECKMAGKDPTHGCGNFVRVIQTFNRTHLYVCGSGAFSPVCTYLNRGRRSEDQVFMIDSKCESGKGRCSFNPNVNTVSVMINEELFSGMYIDFMGTDAAIFRSLTKRNAVRTDQHNSKWLSEPMFVDAHVIPDGTDPNDAKVYFFFKERLTDNNRSTKQIHSMIARICPNDTGGQRSLVNKWTTFLKARLVCSVTDEDGPETHFDELEDVFLLETDNPRTTLVYGIFTTSSSVFKGSAVCVYHLSDIQTVFNGPFAHKEGPNHQLISYQGRIPYPRPGTCPGGAFTPNMRTTKDFPDDVVTFIRNHPLMYNSIYPIHRRPLIVRIGTDYKYTKIAVDRVNAADGRYHVLFLGTDRGTVQKVVVLPTNSSASGELILEELEVFKNHVPITTMKISSKKQQLYVSSNEGVSQVSLHRCHIYGTACADCCLARDPYCAWDGHSCSRFYPTGKARSRAQDVRHGNPLTQCRGFNLKAYRNAAEIVQYGVRNNSTFLECAPKSPQASIKWLLQKDKDRRKEVKLNERIIATSQGLLIRSVQDSDQGLYHCIATENSFKQTIAKINFKVLDSEMVAVVTDKWSPWTWAGSVRALPFHPKDILGAFSHSEMQLINQYCKD
notes: Semaphorin-3C, mouse, residues 22-711, furin cleavage sites mutated (R548, 552A); also called Sema3C-TwinStrep; source: HEK293T, transient co-transfection, secreted into conditioned medium; not shown: TwinStrep, C-terminal, kept
As for B3, the “stoichiometry N” value in data set [3] is 1.

Values taken from paper PMC6695400, “Diversity of oligomerization in Drosophila semaphorins suggests a mechanism of functional fine-tuning” (Nature Communications, 2019).
